Laboratory results reported in patent US20240343771A1 (Chugai, published 2024).

T1: human IL-12 (human, UniProt P29460 23-328; P29459 23-219)
T1 construct: also called Interleukin-12
T1 sequence 1: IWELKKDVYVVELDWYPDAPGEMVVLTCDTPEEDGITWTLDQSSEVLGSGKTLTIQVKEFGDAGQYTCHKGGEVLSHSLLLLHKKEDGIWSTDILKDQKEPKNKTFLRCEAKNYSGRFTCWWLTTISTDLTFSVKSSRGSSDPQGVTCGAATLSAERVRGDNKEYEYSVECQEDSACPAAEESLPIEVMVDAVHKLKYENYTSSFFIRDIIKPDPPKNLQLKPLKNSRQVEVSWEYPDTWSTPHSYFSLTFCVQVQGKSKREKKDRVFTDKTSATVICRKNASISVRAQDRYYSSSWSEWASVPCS
T1 sequence 2: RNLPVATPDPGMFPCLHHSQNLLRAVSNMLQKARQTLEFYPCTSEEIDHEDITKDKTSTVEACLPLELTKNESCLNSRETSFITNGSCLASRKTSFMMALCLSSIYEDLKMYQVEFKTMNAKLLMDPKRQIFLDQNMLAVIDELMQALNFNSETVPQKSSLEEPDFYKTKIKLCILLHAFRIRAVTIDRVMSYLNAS

B1: Anti-IL-12 antibody Ab1 (Ab101H-12aa-C8/Ab102L-SK1) (antibody)
heavy: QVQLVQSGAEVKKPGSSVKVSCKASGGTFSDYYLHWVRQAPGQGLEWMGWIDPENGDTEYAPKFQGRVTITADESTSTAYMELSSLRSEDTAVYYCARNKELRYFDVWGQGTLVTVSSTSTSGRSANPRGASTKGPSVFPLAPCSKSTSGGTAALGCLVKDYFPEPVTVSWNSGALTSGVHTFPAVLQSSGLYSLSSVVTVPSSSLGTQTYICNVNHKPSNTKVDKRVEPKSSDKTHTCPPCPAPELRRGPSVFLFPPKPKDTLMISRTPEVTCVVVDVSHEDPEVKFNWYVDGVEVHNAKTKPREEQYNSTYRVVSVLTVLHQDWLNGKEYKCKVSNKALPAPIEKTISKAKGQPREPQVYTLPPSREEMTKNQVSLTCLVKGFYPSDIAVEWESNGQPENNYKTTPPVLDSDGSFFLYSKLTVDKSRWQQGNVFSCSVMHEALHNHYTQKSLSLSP
light: DIVMTQSPLSLPVTPGEPASISCRASQSISINLHWYQQKPGQAPRLLIYFASQSISGVPSRFSGSGSGTDFTLTISSLQPEDFATYYCQQSNSFPLTFGQGTKVEIKRTVAAPSVFIFPPSDEQLKSGTASVVCLLNNFYPREAKVQWKVDNALQSGNSQESVTEQDSKDSTYSLSSTLTLSKADYEKHKVYACEVTHQGLSSPVTKSFNRGEC
notes: Homodimer of light chain and heavy chain; also called -/- (control)
B2: Anti-IL-12 antibody Ab1 variant F100aI VH/- (antibody, name in Kabat numbering, V domains shown)
VH: QVQLVQSGAEVKKPGSSVKVSCKASGGTFSDYYLHWVRQAPGQGLEWMGWIDPENGDTEYAPKFQGRVTITADESTSTAYMELSSLRSEDTAVYYCARNKELRYIDVWGQGTLVTVSS
VL: DIVMTQSPLSLPVTPGEPASISCRASQSISINLHWYQQKPGQAPRLLIYFASQSISGVPSRFSGSGSGTDFTLTISSLQPEDFATYYCQQSNSFPLTFGQGTKVEIKR
notes: Ab1 with a CDR substitution at the VH/VL interface; Kabat numbering
B3: Anti-IL-12 antibody Ab1 variant -/P44S VL (antibody, V domains shown)
VH: QVQLVQSGAEVKKPGSSVKVSCKASGGTFSDYYLHWVRQAPGQGLEWMGWIDPENGDTEYAPKFQGRVTITADESTSTAYMELSSLRSEDTAVYYCARNKELRYFDVWGQGTLVTVSS
VL: DIVMTQSPLSLPVTPGEPASISCRASQSISINLHWYQQKPGQASRLLIYFASQSISGVPSRFSGSGSGTDFTLTISSLQPEDFATYYCQQSNSFPLTFGQGTKVEIKR
notes: Ab1 with VH/VL interface substitutions; Kabat numbering
B4: Anti-IL-12 antibody Ab1 variant -/L46Q VL (antibody, V domains shown)
VH: QVQLVQSGAEVKKPGSSVKVSCKASGGTFSDYYLHWVRQAPGQGLEWMGWIDPENGDTEYAPKFQGRVTITADESTSTAYMELSSLRSEDTAVYYCARNKELRYFDVWGQGTLVTVSS
VL: DIVMTQSPLSLPVTPGEPASISCRASQSISINLHWYQQKPGQAPRQLIYFASQSISGVPSRFSGSGSGTDFTLTISSLQPEDFATYYCQQSNSFPLTFGQGTKVEIKR
notes: as for B3
B5: Anti-IL-12 antibody Ab1 variant F100aI VH/A43Q, Y49A VL (antibody, name in Kabat numbering, V domains shown)
VH: QVQLVQSGAEVKKPGSSVKVSCKASGGTFSDYYLHWVRQAPGQGLEWMGWIDPENGDTEYAPKFQGRVTITADESTSTAYMELSSLRSEDTAVYYCARNKELRYIDVWGQGTLVTVSS
VL: DIVMTQSPLSLPVTPGEPASISCRASQSISINLHWYQQKPGQQPRLLIAFASQSISGVPSRFSGSGSGTDFTLTISSLQPEDFATYYCQQSNSFPLTFGQGTKVEIKR
notes: as for B3
B6: Anti-IL-12 antibody Ab1 variant F100aI VH/L46Q, Y49A, Y87M VL (antibody, name in Kabat numbering, V domains shown)
VH: QVQLVQSGAEVKKPGSSVKVSCKASGGTFSDYYLHWVRQAPGQGLEWMGWIDPENGDTEYAPKFQGRVTITADESTSTAYMELSSLRSEDTAVYYCARNKELRYIDVWGQGTLVTVSS
VL: DIVMTQSPLSLPVTPGEPASISCRASQSISINLHWYQQKPGQAPRQLIAFASQSISGVPSRFSGSGSGTDFTLTISSLQPEDFATYMCQQSNSFPLTFGQGTKVEIKR
notes: as for B3
B7: Anti-IL-12 antibody Ab1 variant -/A43Q VL (antibody, V domains shown)
VH: QVQLVQSGAEVKKPGSSVKVSCKASGGTFSDYYLHWVRQAPGQGLEWMGWIDPENGDTEYAPKFQGRVTITADESTSTAYMELSSLRSEDTAVYYCARNKELRYFDVWGQGTLVTVSS
VL: DIVMTQSPLSLPVTPGEPASISCRASQSISINLHWYQQKPGQQPRLLIYFASQSISGVPSRFSGSGSGTDFTLTISSLQPEDFATYYCQQSNSFPLTFGQGTKVEIKR
notes: as for B3
B8: Anti-IL-12 antibody Ab1 variant -/Y87A VL (antibody, V domains shown)
VH: QVQLVQSGAEVKKPGSSVKVSCKASGGTFSDYYLHWVRQAPGQGLEWMGWIDPENGDTEYAPKFQGRVTITADESTSTAYMELSSLRSEDTAVYYCARNKELRYFDVWGQGTLVTVSS
VL: DIVMTQSPLSLPVTPGEPASISCRASQSISINLHWYQQKPGQAPRLLIYFASQSISGVPSRFSGSGSGTDFTLTISSLQPEDFATYACQQSNSFPLTFGQGTKVEIKR
notes: as for B3
B9: Anti-IL-12 antibody Ab1 variant -/P44A VL (antibody, V domains shown)
VH: QVQLVQSGAEVKKPGSSVKVSCKASGGTFSDYYLHWVRQAPGQGLEWMGWIDPENGDTEYAPKFQGRVTITADESTSTAYMELSSLRSEDTAVYYCARNKELRYFDVWGQGTLVTVSS
VL: DIVMTQSPLSLPVTPGEPASISCRASQSISINLHWYQQKPGQAARLLIYFASQSISGVPSRFSGSGSGTDFTLTISSLQPEDFATYYCQQSNSFPLTFGQGTKVEIKR
notes: as for B3
B10: Anti-IL-12 antibody Ab1 variant F100aI VH/P44A, Y49A VL (antibody, name in Kabat numbering, V domains shown)
VH: QVQLVQSGAEVKKPGSSVKVSCKASGGTFSDYYLHWVRQAPGQGLEWMGWIDPENGDTEYAPKFQGRVTITADESTSTAYMELSSLRSEDTAVYYCARNKELRYIDVWGQGTLVTVSS
VL: DIVMTQSPLSLPVTPGEPASISCRASQSISINLHWYQQKPGQAARLLIAFASQSISGVPSRFSGSGSGTDFTLTISSLQPEDFATYYCQQSNSFPLTFGQGTKVEIKR
notes: as for B3
B11: Anti-IL-12 antibody Ab1 variant -/Y49A VL (antibody, V domains shown)
VH: QVQLVQSGAEVKKPGSSVKVSCKASGGTFSDYYLHWVRQAPGQGLEWMGWIDPENGDTEYAPKFQGRVTITADESTSTAYMELSSLRSEDTAVYYCARNKELRYFDVWGQGTLVTVSS
VL: DIVMTQSPLSLPVTPGEPASISCRASQSISINLHWYQQKPGQAPRLLIAFASQSISGVPSRFSGSGSGTDFTLTISSLQPEDFATYYCQQSNSFPLTFGQGTKVEIKR
notes: as for B3
B12: Anti-IL-12 antibody Ab1 variant -/P44Q VL (antibody, V domains shown)
VH: QVQLVQSGAEVKKPGSSVKVSCKASGGTFSDYYLHWVRQAPGQGLEWMGWIDPENGDTEYAPKFQGRVTITADESTSTAYMELSSLRSEDTAVYYCARNKELRYFDVWGQGTLVTVSS
VL: DIVMTQSPLSLPVTPGEPASISCRASQSISINLHWYQQKPGQAQRLLIYFASQSISGVPSRFSGSGSGTDFTLTISSLQPEDFATYYCQQSNSFPLTFGQGTKVEIKR
notes: as for B3
B13: Anti-IL-12 antibody Ab1 variant F100aI VH/L46Q, Y49A VL (antibody, name in Kabat numbering, V domains shown)
VH: QVQLVQSGAEVKKPGSSVKVSCKASGGTFSDYYLHWVRQAPGQGLEWMGWIDPENGDTEYAPKFQGRVTITADESTSTAYMELSSLRSEDTAVYYCARNKELRYIDVWGQGTLVTVSS
VL: DIVMTQSPLSLPVTPGEPASISCRASQSISINLHWYQQKPGQAPRQLIAFASQSISGVPSRFSGSGSGTDFTLTISSLQPEDFATYYCQQSNSFPLTFGQGTKVEIKR
notes: as for B3
B14: Anti-IL-12 antibody Ab1 variant F100aI VH/A43Q, L46Q, Y49A VL (antibody, name in Kabat numbering, V domains shown)
VH: QVQLVQSGAEVKKPGSSVKVSCKASGGTFSDYYLHWVRQAPGQGLEWMGWIDPENGDTEYAPKFQGRVTITADESTSTAYMELSSLRSEDTAVYYCARNKELRYIDVWGQGTLVTVSS
VL: DIVMTQSPLSLPVTPGEPASISCRASQSISINLHWYQQKPGQQPRQLIAFASQSISGVPSRFSGSGSGTDFTLTISSLQPEDFATYYCQQSNSFPLTFGQGTKVEIKR
notes: as for B3
B15: Anti-IL-12 antibody Ab1 variant -/Y87M VL (antibody, V domains shown)
VH: QVQLVQSGAEVKKPGSSVKVSCKASGGTFSDYYLHWVRQAPGQGLEWMGWIDPENGDTEYAPKFQGRVTITADESTSTAYMELSSLRSEDTAVYYCARNKELRYFDVWGQGTLVTVSS
VL: DIVMTQSPLSLPVTPGEPASISCRASQSISINLHWYQQKPGQAPRLLIYFASQSISGVPSRFSGSGSGTDFTLTISSLQPEDFATYMCQQSNSFPLTFGQGTKVEIKR
notes: as for B3
B16: Anti-IL-12 antibody Ab1 variant -/F98M VL (antibody)
heavy: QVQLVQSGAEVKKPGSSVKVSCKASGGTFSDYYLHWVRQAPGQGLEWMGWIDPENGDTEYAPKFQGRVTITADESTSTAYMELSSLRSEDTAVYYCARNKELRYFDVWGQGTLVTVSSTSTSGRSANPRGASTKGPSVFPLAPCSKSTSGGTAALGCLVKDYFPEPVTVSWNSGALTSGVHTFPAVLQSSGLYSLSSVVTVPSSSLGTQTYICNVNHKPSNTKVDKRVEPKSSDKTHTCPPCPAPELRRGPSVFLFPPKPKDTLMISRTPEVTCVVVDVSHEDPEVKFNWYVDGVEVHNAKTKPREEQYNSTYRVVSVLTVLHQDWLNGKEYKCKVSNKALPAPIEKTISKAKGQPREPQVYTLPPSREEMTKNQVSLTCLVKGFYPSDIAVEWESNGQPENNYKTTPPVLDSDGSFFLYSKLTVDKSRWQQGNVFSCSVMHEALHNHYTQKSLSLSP
light: DIVMTQSPLSLPVTPGEPASISCRASQSISINLHWYQQKPGQAPRLLIYFASQSISGVPSRFSGSGSGTDFTLTISSLQPEDFATYYCQQSNSFPLTMGQGTKVEIKRTVAAPSVFIFPPSDEQLKSGTASVVCLLNNFYPREAKVQWKVDNALQSGNSQESVTEQDSKDSTYSLSSTLTLSKADYEKHKVYACEVTHQGLSSPVTKSFNRGEC
notes: as for B3
B17: Anti-IL-12 antibody Ab1 variant -/F98L VL (antibody)
heavy: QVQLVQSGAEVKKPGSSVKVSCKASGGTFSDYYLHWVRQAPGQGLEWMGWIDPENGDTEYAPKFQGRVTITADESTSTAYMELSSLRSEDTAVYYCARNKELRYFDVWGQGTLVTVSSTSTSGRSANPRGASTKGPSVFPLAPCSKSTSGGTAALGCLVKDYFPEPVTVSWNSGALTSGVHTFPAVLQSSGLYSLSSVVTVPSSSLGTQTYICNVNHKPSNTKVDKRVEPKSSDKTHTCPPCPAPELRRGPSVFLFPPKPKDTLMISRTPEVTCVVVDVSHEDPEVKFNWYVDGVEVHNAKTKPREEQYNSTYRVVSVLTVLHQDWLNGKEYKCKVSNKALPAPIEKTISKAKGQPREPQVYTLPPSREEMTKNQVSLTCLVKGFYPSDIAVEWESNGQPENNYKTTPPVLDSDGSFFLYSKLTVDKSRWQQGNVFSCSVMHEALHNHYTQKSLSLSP
light: DIVMTQSPLSLPVTPGEPASISCRASQSISINLHWYQQKPGQAPRLLIYFASQSISGVPSRFSGSGSGTDFTLTISSLQPEDFATYYCQQSNSFPLTLGQGTKVEIKRTVAAPSVFIFPPSDEQLKSGTASVVCLLNNFYPREAKVQWKVDNALQSGNSQESVTEQDSKDSTYSLSSTLTLSKADYEKHKVYACEVTHQGLSSPVTKSFNRGEC
notes: as for B3
B18: Anti-IL-12 antibody Ab1 variant -/Y87L VL (antibody, V domains shown)
VH: QVQLVQSGAEVKKPGSSVKVSCKASGGTFSDYYLHWVRQAPGQGLEWMGWIDPENGDTEYAPKFQGRVTITADESTSTAYMELSSLRSEDTAVYYCARNKELRYFDVWGQGTLVTVSS
VL: DIVMTQSPLSLPVTPGEPASISCRASQSISINLHWYQQKPGQAPRLLIYFASQSISGVPSRFSGSGSGTDFTLTISSLQPEDFATYLCQQSNSFPLTFGQGTKVEIKR
notes: as for B3
B19: Anti-IL-12 antibody Ab1 variant -/F98A VL (antibody)
heavy: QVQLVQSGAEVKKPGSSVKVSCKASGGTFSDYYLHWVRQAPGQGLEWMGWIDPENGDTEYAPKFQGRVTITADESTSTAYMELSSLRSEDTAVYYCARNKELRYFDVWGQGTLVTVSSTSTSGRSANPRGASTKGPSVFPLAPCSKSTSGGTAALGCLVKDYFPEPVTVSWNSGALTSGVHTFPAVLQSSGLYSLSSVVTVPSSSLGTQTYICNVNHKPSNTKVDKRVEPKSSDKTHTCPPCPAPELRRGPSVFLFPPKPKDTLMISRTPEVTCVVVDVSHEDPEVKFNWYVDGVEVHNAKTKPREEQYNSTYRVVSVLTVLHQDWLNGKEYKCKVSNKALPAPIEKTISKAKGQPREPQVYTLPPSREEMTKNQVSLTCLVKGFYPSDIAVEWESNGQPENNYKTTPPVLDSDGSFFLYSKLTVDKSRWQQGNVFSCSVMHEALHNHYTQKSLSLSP
light: DIVMTQSPLSLPVTPGEPASISCRASQSISINLHWYQQKPGQAPRLLIYFASQSISGVPSRFSGSGSGTDFTLTISSLQPEDFATYYCQQSNSFPLTAGQGTKVEIKRTVAAPSVFIFPPSDEQLKSGTASVVCLLNNFYPREAKVQWKVDNALQSGNSQESVTEQDSKDSTYSLSSTLTLSKADYEKHKVYACEVTHQGLSSPVTKSFNRGEC
notes: as for B3

Molecular target: T1, human IL-12
Assay: SPR (Biacore T200), 37 C, pH 7.4; captured antibody, IL-12 analyte
Experimental: The affinity of anti-IL-12 antibodies binding to human IL-12 at pH 7.4 were determined at 37 degrees C. using Biacore T200 instrument (Cytiva). Anti-human Fc antibody (Cytiva) was immobilized onto all flow cells (FCs) of a CM4 sensor chip using amine coupling kit (Cytiva). All antibodies and analytes were prepared in ACES pH 7.4 containing 20 mM ACES, 150 mM NaCl, 0.05% Tween 20, 0.005% NaN₃. Each antibody was captured onto the sensor surface by anti-human Fc antibody. Antibody capture levels were aimed at 50 response unit (RU). 5 nM of human IL-12 were injected as analyte, followed by dissociation. Sensor surface was regenerated each cycle with 3M MgCl₂. […] Based on the results in Table 9, it is observed that binding kinetics of anti-IL-12 antibody AbI variants towards IL-12 were not drastically changed compared to control (−/−).

**Q.** B1 was tested. Which Kd did it give?
**A.** 0.948 nM

**Q.** How did the Kd turn out when B2 was run?
**A.** 0.571 nM

**Q.** With B3 as the binder, how does the Kd read?
**A.** 1.17 nM

**Q.** B4 was tested. Which Kd did it give?
**A.** 1.62 nM

**Q.** How did the Kd turn out when B5 was run?
**A.** 1.33 nM

**Q.** For B6, which Kd is on record?
**A.** 3.68 nM

**Q.** How did the Kd turn out when B7 was run?
**A.** 0.937 nM

**Q.** B8 was tested. Which Kd did it give?
**A.** 1.21 nM

**Q.** Which Kd does the source give for B9 here?
**A.** 0.858 nM

**Q.** With B10 as the binder, how does the Kd read?
**A.** 1.25 nM

**Q.** B11 was tested. Which Kd did it give?
**A.** 1.74 nM

**Q.** B12 was tested. Which Kd did it give?
**A.** 0.94 nM

**Q.** For B13, which Kd is on record?
**A.** 3.48 nM

**Q.** B14 was tested. Which Kd did it give?
**A.** 3.56 nM

**Q.** With B15 as the binder, how does the Kd read?
**A.** 1.22 nM

**Q.** How did the Kd turn out when B16 was run?
**A.** 0.685 nM

**Q.** B17 was tested. Which Kd did it give?
**A.** 0.499 nM

**Q.** Which Kd does the source give for B18 here?
**A.** 1.46 nM

**Q.** How did the Kd turn out when B19 was run?
**A.** 1.03 nM
